Measurements as given in US20240082401A1.

Key:
[1] = target: CS1-BCMA-41BB-CD3 CAR (bispecific CS1-BCMA chimeric antigen receptor), expressed on T cells; experiment: FACS, donor #57 T cells, goat anti-mouse F(ab)2 staining
[2] = target: CS1-BCMA-41BB-CD3 CAR (bispecific CS1-BCMA chimeric antigen receptor), expressed on T cells; experiment: FACS, donor #890 T cells, goat anti-mouse F(ab)2 staining
[3] = target: BCMA-41BB-CD3-CAR (monospecific BCMA CAR), expressed on T cells; experiment: FACS, donor #57 single BCMA CAR-T cells, goat anti-mouse F(ab)2 staining
[4] = target: CS1-BCMA-41BB-CD3 CAR (bispecific CS1-BCMA chimeric antigen receptor), expressed on T cells; experiment: FACS of CAR-transduced T cells stained with biotinylated goat anti-mouse F(ab)2 and PE-streptavidin
[5] = target: monospecific CS1 CAR, expressed on T cells; experiment: FACS, donor #57 CS1 CAR-T cells; detection reagent not named in the sentence (taken as anti-mouse F(ab)2)

Chain of CS1-BCMA-41BB-CD3 CAR (bispecific CS1-BCMA chimeric antigen receptor), expressed on T cells (chain, as listed by the source mutant): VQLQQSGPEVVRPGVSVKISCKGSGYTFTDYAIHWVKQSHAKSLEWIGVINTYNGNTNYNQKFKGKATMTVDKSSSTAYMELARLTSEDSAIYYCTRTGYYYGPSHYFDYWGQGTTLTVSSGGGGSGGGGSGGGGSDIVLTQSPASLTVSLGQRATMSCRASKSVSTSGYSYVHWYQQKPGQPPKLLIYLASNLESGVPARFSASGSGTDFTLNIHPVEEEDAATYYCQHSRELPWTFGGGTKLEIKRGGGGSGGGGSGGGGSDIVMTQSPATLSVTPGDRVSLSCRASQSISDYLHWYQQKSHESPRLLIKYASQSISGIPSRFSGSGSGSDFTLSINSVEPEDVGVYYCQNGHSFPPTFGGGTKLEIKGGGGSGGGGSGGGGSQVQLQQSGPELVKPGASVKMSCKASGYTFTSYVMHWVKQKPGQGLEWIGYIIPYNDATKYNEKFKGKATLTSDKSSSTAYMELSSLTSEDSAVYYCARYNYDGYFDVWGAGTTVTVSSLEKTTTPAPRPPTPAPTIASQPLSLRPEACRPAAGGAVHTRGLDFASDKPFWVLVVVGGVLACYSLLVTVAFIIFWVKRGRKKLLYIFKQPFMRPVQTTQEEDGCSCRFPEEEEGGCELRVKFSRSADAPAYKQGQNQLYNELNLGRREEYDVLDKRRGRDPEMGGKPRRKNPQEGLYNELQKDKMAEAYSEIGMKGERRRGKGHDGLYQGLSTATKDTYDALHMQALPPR

proportion of CAR cells detected [1]: > 70% | proportion of CAR+ cells detected [2]: 81% | proportion of CAR cells detected [3]: 57% | percentage of CAR+ cells detected [4]: > 95% | percentage of CAR+ cells [5]: 68%
Substance: Biotin-labeled polyclonal goat anti-mouse F(ab)2 antibody (Life Technologies)
